According to patent publication US20240254201A1:

Target: EBOV GP on EBOV-eGFP-Mayinga authentic virus (Ebola virus (EBOV), Mayinga) (UniProt Q05320)
Assay: cell-based or functional assay

Sequence of EBOV GP on EBOV-eGFP-Mayinga authentic virus (Ebola virus (EBOV), Mayinga) (Q05320 33-676 limits assumed): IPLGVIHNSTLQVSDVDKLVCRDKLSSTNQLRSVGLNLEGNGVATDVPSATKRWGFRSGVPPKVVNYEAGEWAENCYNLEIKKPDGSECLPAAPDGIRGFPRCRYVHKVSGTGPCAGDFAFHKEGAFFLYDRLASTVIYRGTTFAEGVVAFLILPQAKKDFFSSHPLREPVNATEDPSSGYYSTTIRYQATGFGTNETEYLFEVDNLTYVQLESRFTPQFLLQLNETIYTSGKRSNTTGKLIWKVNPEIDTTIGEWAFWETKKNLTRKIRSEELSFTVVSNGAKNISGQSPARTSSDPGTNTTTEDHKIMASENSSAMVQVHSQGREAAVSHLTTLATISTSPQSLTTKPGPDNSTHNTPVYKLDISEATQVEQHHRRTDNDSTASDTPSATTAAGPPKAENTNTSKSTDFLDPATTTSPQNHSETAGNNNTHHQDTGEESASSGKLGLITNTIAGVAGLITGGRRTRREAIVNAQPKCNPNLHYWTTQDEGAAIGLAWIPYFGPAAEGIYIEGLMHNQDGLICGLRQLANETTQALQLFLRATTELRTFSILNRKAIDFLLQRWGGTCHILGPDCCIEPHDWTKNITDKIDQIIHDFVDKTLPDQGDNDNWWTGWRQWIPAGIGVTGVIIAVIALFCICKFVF

## CA45 (antibody)
  IC50, EBOV-eGFP-Mayinga authentic virus neutralization test: 8.51 µg/mL
  IC90, EBOV-eGFP-Mayinga authentic virus neutralization test: 13 µg/mL
